According to paper PMC7952371:

Biological target: T1, mixed lineage pseudokinase ligand (human (endogenous in post-mortem brain grey matter)), Q8NB16
T1 chain: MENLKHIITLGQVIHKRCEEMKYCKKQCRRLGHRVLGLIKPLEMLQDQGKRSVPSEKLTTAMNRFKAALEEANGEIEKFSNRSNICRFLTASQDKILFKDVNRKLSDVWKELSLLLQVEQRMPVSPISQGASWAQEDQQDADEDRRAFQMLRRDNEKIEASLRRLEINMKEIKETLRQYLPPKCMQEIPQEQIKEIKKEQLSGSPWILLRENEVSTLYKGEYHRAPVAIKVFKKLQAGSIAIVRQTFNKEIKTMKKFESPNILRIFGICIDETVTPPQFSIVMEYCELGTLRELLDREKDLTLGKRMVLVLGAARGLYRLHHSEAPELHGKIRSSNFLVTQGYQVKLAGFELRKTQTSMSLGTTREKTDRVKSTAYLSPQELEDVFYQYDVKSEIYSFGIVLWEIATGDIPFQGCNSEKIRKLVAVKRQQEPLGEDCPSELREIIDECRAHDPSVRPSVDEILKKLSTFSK
Assay: non-reducing gel electrophoresis and Western blot; MS grey matter extracted in native conditions (TBS, 0.1% Triton X-100); 3-8% Tris-acetate gels in non-reducing conditions; blot for MLKL
Conditions: remark: other sources report otherwise

stoichiometry N: 4
B1: mixed lineage pseudokinase ligand, Q8NB16 1-471 (natural protein)
chain: MENLKHIITLGQVIHKRCEEMKYCKKQCRRLGHRVLGLIKPLEMLQDQGKRSVPSEKLTTAMNRFKAALEEANGEIEKFSNRSNICRFLTASQDKILFKDVNRKLSDVWKELSLLLQVEQRMPVSPISQGASWAQEDQQDADEDRRAFQMLRRDNEKIEASLRRLEINMKEIKETLRQYLPPKCMQEIPQEQIKEIKKEQLSGSPWILLRENEVSTLYKGEYHRAPVAIKVFKKLQAGSIAIVRQTFNKEIKTMKKFESPNILRIFGICIDETVTPPQFSIVMEYCELGTLRELLDREKDLTLGKRMVLVLGAARGLYRLHHSEAPELHGKIRSSNFLVTQGYQVKLAGFELRKTQTSMSLGTTREKTDRVKSTAYLSPQELEDVFYQYDVKSEIYSFGIVLWEIATGDIPFQGCNSEKIRKLVAVKRQQEPLGEDCPSELREIIDECRAHDPSVRPSVDEILKKLSTFSK
